Source: patent US20210246166A1 (Bayer, published 2021)
Numbered stars: 1 amine (or outer) side, 2 acyl side, 3 side chain; on linkers, the order of the positions; unused ones are H or OH. Bridge positions count the residues as written; N and C are the ends. Square brackets hold non-standard residues; d marks the D form. Ends that are not written are not given here. Phe(2,3-F2) = (2S)-3-(2,3-difluorophenyl)-2-aminopropanoic acid, O=C([C@H](Cc1cccc(F)c1F)N[*:1])[*:2]; X7 = 4‑(3,5-Dimethyl-1,2-oxazol-4-yl)‑L‑phenylalanine, Cc1noc(C)c1-c1ccc(C[C@H](N[*:1])C(=O)[*:2])cc1; X3 = (1R,3S)‑3‑(Amino)cyclopentanecarboxylic acid, O=C([C@@H]1CC[C@H](N[*:1])C1)[*:2]; X8 = (R)‑4‑Amino‑6‑methylheptanoic acid, CC(C)C[C@@H](CCC(=O)[*:2])N[*:1]; His(τ-Bzl) = N[C@@H](Cc1cn(Cc2ccccc2)cn1)C(=O)O; Pro(4-spirocPr) = O=C(O)[C@@H]1CC2(CC2)CN1; Oic = O=C(O)[C@@H]1C[C@@H]2CCCC[C@@H]2N1; tBuAla = CC(C)(C)C[C@H](N)C(=O)O; (3-Me)H = L-3-methylhistidine; Pen = CC(C)(S)[C@H](N)C(=O)O; NMeA = CN[C@@H](C)C(=O)O; Orn = NCCC[C@H](N)C(=O)O; Nva = CCC[C@H](N)C(=O)O; Sar = CNCC(=O)O

T1: recombinant rat MASP1 active protease (amino acids 302-704, C-terminal His Tag) (rat, UniProt Q8CHN8 302-704)
T1 sequence: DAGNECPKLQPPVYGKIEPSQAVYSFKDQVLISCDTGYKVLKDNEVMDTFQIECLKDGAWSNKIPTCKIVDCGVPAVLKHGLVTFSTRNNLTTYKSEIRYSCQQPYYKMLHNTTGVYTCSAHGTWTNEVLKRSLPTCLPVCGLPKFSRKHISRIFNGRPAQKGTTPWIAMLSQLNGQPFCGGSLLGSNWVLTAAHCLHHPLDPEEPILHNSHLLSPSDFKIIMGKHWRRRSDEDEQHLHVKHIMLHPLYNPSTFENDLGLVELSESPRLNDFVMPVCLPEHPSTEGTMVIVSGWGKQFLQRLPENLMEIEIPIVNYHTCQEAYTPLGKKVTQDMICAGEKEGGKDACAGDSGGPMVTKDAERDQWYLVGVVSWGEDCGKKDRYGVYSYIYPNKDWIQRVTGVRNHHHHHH


Tests used:
[1] = target: T1, recombinant rat MASP1 active protease …; test: cell-based or functional assay
[2] = target: recombinant rat MASP2 active protease (amino acids 296-685, C-terminal His Tag) (rat, UniProt Q9JJS8 296-685); test: cell-based or functional assay
Sequence of recombinant rat MASP2 active protease (amino acids 296-685, C-terminal His Tag) (Q9JJS8 other isoform, or with tags, fused parts or gaps limits assumed): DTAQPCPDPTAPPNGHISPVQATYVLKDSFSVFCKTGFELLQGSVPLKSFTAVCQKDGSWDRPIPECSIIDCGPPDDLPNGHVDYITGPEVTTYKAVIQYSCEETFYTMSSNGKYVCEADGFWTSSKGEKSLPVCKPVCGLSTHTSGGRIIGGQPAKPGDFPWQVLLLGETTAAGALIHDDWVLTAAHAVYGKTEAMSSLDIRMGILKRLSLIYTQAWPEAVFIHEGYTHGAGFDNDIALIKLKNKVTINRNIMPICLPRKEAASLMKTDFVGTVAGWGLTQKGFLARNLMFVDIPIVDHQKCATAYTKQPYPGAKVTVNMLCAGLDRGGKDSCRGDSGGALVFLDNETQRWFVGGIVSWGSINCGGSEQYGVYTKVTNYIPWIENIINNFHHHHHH

Binder | rat MASP1 IC50 [1] [nM] | rat MASP2 IC50 [2] [nM]
[Sar]ICSRS[Phe(2,3-F2)]PPI[Pen]IP-NH2 (disulfide 3-11; N-terminus assumed; SMILES CC[C@H](C)[C@H](NC(=O)CNC)C(=O)N[C@H]1CSSC(C)(C)[C@@H](C(=O)N[C@H](C(=O)N2CCC[C@H]2C(N)=O)[C@@H](C)CC)NC(=O)[C@H]([C@@H](C)CC)NC(=O)[C@@H]2CCCN2C(=O)[C@@H]2CCCN2C(=O)[C@H](Cc2cccc(F)c2F)NC(=O)[C@H](CO)NC(=O)[C@H](CCCNC(=N)N)NC(=O)[C@H](CO)NC1=O) [Example 440: ((N-Me)G)-IC+SRS-((2S)-3-(2,3-difluorophenyl)-2-aminopropanoic acid)-PPI-(Pen)+IP-NH2] | 610 | 14
[Sar]ICSRS[tBuAla]P[Pro(4-spirocPr)]I[Pen]IP-NH2 (disulfide 3-11; N-terminus assumed; SMILES CC[C@H](C)[C@H](NC(=O)CNC)C(=O)N[C@H]1CSSC(C)(C)[C@@H](C(=O)N[C@H](C(=O)N2CCC[C@H]2C(N)=O)[C@@H](C)CC)NC(=O)[C@H]([C@@H](C)CC)NC(=O)[C@@H]2CC3(CC3)CN2C(=O)[C@@H]2CCCN2C(=O)[C@H](CC(C)(C)C)NC(=O)[C@H](CO)NC(=O)[C@H](CCCNC(=N)N)NC(=O)[C@H](CO)NC1=O) | 36 | 9.4
[Sar]ICSRS[Phe(2,3-F2)]P[Oic]I[Pen]IP-NH2 (disulfide 3-11; N-terminus assumed; SMILES CC[C@H](C)[C@H](NC(=O)CNC)C(=O)N[C@H]1CSSC(C)(C)[C@@H](C(=O)N[C@H](C(=O)N2CCC[C@H]2C(N)=O)[C@@H](C)CC)NC(=O)[C@H]([C@@H](C)CC)NC(=O)[C@@H]2C[C@@H]3CCCC[C@@H]3N2C(=O)[C@@H]2CCCN2C(=O)[C@H](Cc2cccc(F)c2F)NC(=O)[C@H](CO)NC(=O)[C@H](CCCNC(=N)N)NC(=O)[C@H](CO)NC1=O) | 410 | 120
[X7]ICSRSLP[Oic]I[Pen]IP-NH2 (disulfide 3-11; N-terminus assumed; SMILES CC[C@H](C)[C@H](NC(=O)[C@@H](N)Cc1ccc(-c2c(C)noc2C)cc1)C(=O)N[C@H]1CSSC(C)(C)[C@@H](C(=O)N[C@H](C(=O)N2CCC[C@H]2C(N)=O)[C@@H](C)CC)NC(=O)[C@H]([C@@H](C)CC)NC(=O)[C@@H]2C[C@@H]3CCCC[C@@H]3N2C(=O)[C@@H]2CCCN2C(=O)[C@H](CC(C)C)NC(=O)[C@H](CO)NC(=O)[C@H](CCCNC(=N)N)NC(=O)[C@H](CO)NC1=O) [Example 360: (4-(3,5-Dimethyl-1,2-oxazol-4-yl)-L-phenylalanine)-IC+SRSLP-(Oic)-I-(Pen)+IP-NH2] | 120 | 73
[Sar]ICSRS[tBuAla]PPI[Pen]IP[His(τ-Bzl)]-OH (disulfide 3-11; N-terminus assumed; SMILES CC[C@H](C)[C@H](NC(=O)CNC)C(=O)N[C@H]1CSSC(C)(C)[C@@H](C(=O)N[C@H](C(=O)N2CCC[C@H]2C(=O)N[C@@H](Cc2cn(Cc3ccccc3)cn2)C(=O)O)[C@@H](C)CC)NC(=O)[C@H]([C@@H](C)CC)NC(=O)[C@@H]2CCCN2C(=O)[C@@H]2CCCN2C(=O)[C@H](CC(C)(C)C)NC(=O)[C@H](CO)NC(=O)[C@H](CCCNC(=N)N)NC(=O)[C@H](CO)NC1=O) [Example 447: ((N-Me)G)-IC+SRS-((tBu)A)-PPI-(Pen)+IP-((1-Bn)H)-OH] | 21 | 35
[Sar]ICSRSLP[Oic]I[Pen]I[5‑Azaspiro(2.4)heptane‑1‑carboxylic acid]-OH (disulfide 3-11) [Example 419: ((N-Me)G)-IC+SRSLP-(Oic)-I-(Pen)+I-((5-Azaspiro[2.4]heptane-1-carboxylic acid)-OH] | 70 | 42
[Sar][Orn][Orn][Orn]ICSRSLP[Oic]I[Pen]IP-NH2 (disulfide 6-14; N-terminus assumed; SMILES CC[C@H](C)[C@H](NC(=O)[C@H](CCCN)NC(=O)[C@H](CCCN)NC(=O)[C@H](CCCN)NC(=O)CNC)C(=O)N[C@H]1CSSC(C)(C)[C@@H](C(=O)N[C@H](C(=O)N2CCC[C@H]2C(N)=O)[C@@H](C)CC)NC(=O)[C@H]([C@@H](C)CC)NC(=O)[C@@H]2C[C@@H]3CCCC[C@@H]3N2C(=O)[C@@H]2CCCN2C(=O)[C@H](CC(C)C)NC(=O)[C@H](CO)NC(=O)[C@H](CCCNC(=N)N)NC(=O)[C@H](CO)NC1=O) [Example 405: ((N-Me)G)-(Orn)-(Orn)-(Orn)-IC+SRSLP-(Oic)-I-(Pen)+IP-NH2] | 650 | 510
[Sar]ICSRSLP[Oic]I[Pen]IP[(2S)‑3‑(Triazol-1-yl)‑2‑(amino)propanoic acid]-NH2 (disulfide 3-11) [Example 437: ((N-Me)G)-IC+SRSLP-(Oic)-I-(Pen)+IP-((2S)-3-(Triazol-1-yl)-2-(amino)propanoic acid)-NH2] | 46 | 40
[NMeA]ICSRS[tBuAla]P[(3R,6R)‑1,1‑Difluoro‑5‑azaspiro(2.4)heptane‑6‑carboxylic acid (enantiomer 1)]I[Pen]IP-NH2 (disulfide 3-11) | 29 | 4.7
[(3-Me)H]ICSRSLP[Oic]I[Pen]IP-NH2 (disulfide 3-11) [Example 444: ((3-Me)H)-IC+SRSLP-(Oic)-I-(Pen)+IP-NH2] | 130 | 9.8

Results, then the binder that gave them:

rat MASP1 IC50 [1] [nM] | rat MASP2 IC50 [2] [nM] | Binder
600 | 470 | [Sar][Orn][Orn][Orn]ICSRS[tBuAla]PPI[Pen]IP-NH2 (disulfide 6-14; N-terminus assumed; SMILES CC[C@H](C)[C@H](NC(=O)[C@H](CCCN)NC(=O)[C@H](CCCN)NC(=O)[C@H](CCCN)NC(=O)CNC)C(=O)N[C@H]1CSSC(C)(C)[C@@H](C(=O)N[C@H](C(=O)N2CCC[C@H]2C(N)=O)[C@@H](C)CC)NC(=O)[C@H]([C@@H](C)CC)NC(=O)[C@@H]2CCCN2C(=O)[C@@H]2CCCN2C(=O)[C@H](CC(C)(C)C)NC(=O)[C@H](CO)NC(=O)[C@H](CCCNC(=N)N)NC(=O)[C@H](CO)NC1=O) [Example 381: ((N-Me)G)-(Orn)-(Orn)-(Orn)-IC+SRS-((tBu)A)-PPI-(Pen)+IP-NH2]
31 | 22 | [Sar]ICSRSLP[Oic]I[Pen]IP[5‑Azaspiro(2.4)heptane‑1‑carboxylic acid]-OH (disulfide 3-11) [Example 438: ((N-Me)G)-IC+SRSLP-(Oic)-I-(Pen)+IP-((5-Azaspiro[2.4]heptane-1-carboxylic acid)-OH]
150 | 94 | [NMeA]ICSRS[tBuAla]P[(3R,6R)‑1,1‑Difluoro‑5‑azaspiro(2.4)heptane‑6‑carboxylic acid (enantiomer 2)]I[Pen]IP-NH2 (disulfide 3-11)
5000 | 5000 | [Sar]ICRRS[tBuAla]PP[Nva][Pen]IP-NH2 (disulfide 3-11; N-terminus assumed; SMILES CCC[C@@H]1NC(=O)[C@@H]2CCCN2C(=O)[C@@H]2CCCN2C(=O)[C@H](CC(C)(C)C)NC(=O)[C@H](CO)NC(=O)[C@H](CCCNC(=N)N)NC(=O)[C@H](CCCNC(=N)N)NC(=O)[C@@H](NC(=O)[C@@H](NC(=O)CNC)[C@@H](C)CC)CSSC(C)(C)[C@@H](C(=O)N[C@H](C(=O)N2CCC[C@H]2C(N)=O)[C@@H](C)CC)NC1=O) [Example 448: ((N-Me)G)-IC+RRS-((tBu)A)-PP-(Nva)-(Pen)+IP-NH2]
39 | 31 | [Sar]ICSRSLP[Oic]I[Pen]IPP[(2S)‑3‑(Triazol-1-yl)‑2‑(amino)propanoic acid]-NH2 (disulfide 3-11)
31 | 52 | [Sar]ICSRSLP[Oic]I[Pen]IP[X8]-OH (disulfide 3-11; N-terminus assumed; SMILES CC[C@H](C)[C@H](NC(=O)CNC)C(=O)N[C@H]1CSSC(C)(C)[C@@H](C(=O)N[C@H](C(=O)N2CCC[C@H]2C(=O)N[C@H](CCC(=O)O)CC(C)C)[C@@H](C)CC)NC(=O)[C@H]([C@@H](C)CC)NC(=O)[C@@H]2C[C@@H]3CCCC[C@@H]3N2C(=O)[C@@H]2CCCN2C(=O)[C@H](CC(C)C)NC(=O)[C@H](CO)NC(=O)[C@H](CCCNC(=N)N)NC(=O)[C@H](CO)NC1=O) [Example 450: ((N-Me)G)-IC+SRSLP-(Oic)-I-(Pen)+IP-((R)-4-Amino-6-methylheptanoic acid)-OH]
45 | 44.5 | [Sar]ICSRSLP[Oic]I[Pen]IP[X3]-OH (disulfide 3-11; N-terminus assumed; SMILES CC[C@H](C)[C@H](NC(=O)CNC)C(=O)N[C@H]1CSSC(C)(C)[C@@H](C(=O)N[C@H](C(=O)N2CCC[C@H]2C(=O)N[C@H]2CC[C@@H](C(=O)O)C2)[C@@H](C)CC)NC(=O)[C@H]([C@@H](C)CC)NC(=O)[C@@H]2C[C@@H]3CCCC[C@@H]3N2C(=O)[C@@H]2CCCN2C(=O)[C@H](CC(C)C)NC(=O)[C@H](CO)NC(=O)[C@H](CCCNC(=N)N)NC(=O)[C@H](CO)NC1=O) [Example 449: ((N-Me)G)-IC+SRSLP-(Oic)-I-(Pen)+IP-((1R,3S)-3-(Amino)cyclopentanecarboxylic acid)-OH]
235 | 170 | [dF]ICSRSLP[Oic]I[Pen]IP-NH2 (disulfide 3-11; N-terminus assumed; SMILES CC[C@H](C)[C@H](NC(=O)[C@H](N)Cc1ccccc1)C(=O)N[C@H]1CSSC(C)(C)[C@@H](C(=O)N[C@H](C(=O)N2CCC[C@H]2C(N)=O)[C@@H](C)CC)NC(=O)[C@H]([C@@H](C)CC)NC(=O)[C@@H]2C[C@@H]3CCCC[C@@H]3N2C(=O)[C@@H]2CCCN2C(=O)[C@H](CC(C)C)NC(=O)[C@H](CO)NC(=O)[C@H](CCCNC(=N)N)NC(=O)[C@H](CO)NC1=O) [Example 370: fIC+SRSLP-(Oic)-I-(Pen)+IP-NH2]
